# Reference: patent US20220281998A1 (AZUSAPHARMA SCIENCES, published 2022)
# Substitutions are numbered along the chain they refer to.
# T1: human EpCAM on HCT116 cells (EpCAM-positive human colon cancer cell line) (human, UniProt P16422 24-314)
# T1 sequence (looked up): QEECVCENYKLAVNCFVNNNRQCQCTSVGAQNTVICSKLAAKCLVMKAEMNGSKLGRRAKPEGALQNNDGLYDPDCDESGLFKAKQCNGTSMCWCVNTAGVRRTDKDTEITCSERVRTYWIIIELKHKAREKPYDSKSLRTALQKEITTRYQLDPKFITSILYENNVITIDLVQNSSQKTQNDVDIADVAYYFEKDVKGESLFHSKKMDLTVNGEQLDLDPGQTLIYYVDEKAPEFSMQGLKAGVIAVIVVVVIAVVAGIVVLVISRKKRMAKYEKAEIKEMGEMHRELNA
# B1: HL-PUM-H diabody-type BsAb (PSMA×CD3 diabody-type BsAb derived from HL-PUM-H strain) (bispecific antibody)
# chain 1: ATEVQLVESGGGLVQPGGSLRLSCAASGYSFTGYTMNWVRQAPGKGLEWVALINPYKGVSTYNQKFKDRFTISVDKSKNTAYLQMNSLRAEDTAVYYCARSGYYGDSDWYFDVWGQGTLVTVSSAAGGGGSDIQMTQSPSSLSASVGDRVTITCKASQNVDTNVAWYQQKPGQAPKSLIYSASYRYSDVPSRFSGSASGTDFTLTISSVQSEDFATYYCQQYDSYPYTFGGGTKLEIKAAAEQKLISEEDLNLGGGMRGSHHHHHH
# chain 2: ADQVQLVESGGGLVKPGESLRLSCAASGFTFSDYYMYWVRQAPGKGLEWVAIISDGGYYTYYSDIIKGRFTISRDNAKNSLYLQMNSLKAEDTAVYYCARGFPLLRHGAMDYWGQGTLVTVSSAAGGGGSDIQMTQSPSSLSASVGDRVTITCRASQDIRNYLNWYQQKPGKAPKLLIYYTSRLESGVPSRFSGSGSGTDYTLTISSLQPEDFATYYCQQGNTLPWTFGQGTKVEIKAAAEQKLISEEDLNLGGGMRGSHHHHHH
# B2: LH36 diabody-type BsAb (HER2×CD3 diabody-type BsAb derived from CUM-36-1H strain) (bispecific antibody)
# chain 1: ATLTPDIQMTQSPSSLSASVGDRVTITCKASQDVSIGVAWYQQKPGKAPKLLIYSASYRYTGVPSRFSGSGSGTDFTLTISSLQPEDFATYYCQQYYIYPYTFGQGTKVEIKAAGGGGSEVQLVESGGGLVQPGGSLRLSCAASGYSFTGYTMNWVRQAPGKGLEWVALINPYKGVSTYNQKFKDRFTISVDKSKNTAYLQMNSLRAEDTAVYYCARSGYYGDSDWYFDVWGQGTLVTVSSAAAEQKLISEEDLNLGGGMRGSHHHHHH
# chain 2: ATDIQMTQSPSSLSASVGDRVTITCRASQDIRNYLNWYQQKPGKAPKLLIYYTSRLESGVPSRFSGSGSGTDYTLTISSLQPEDFATYYCQQGNTLPWTFGQGTKVEIKAAGGGGSEVQLVESGGGLVQPGGSLRLSCAASGFTFTDYTMDWVRQAPGKGLEWVADVNPNSGGSIYNQRFKGRFTLSVDRSKNTLYLQMNSLRAEDTAVYYCARNLGPSFYFDYWGQGTLVTVSSAAAEQKLISEEDLNLGGGMRGSHHHHHH
# notes: Secreted by Bifidobacterium longum 105-A carrying pLH36-1; purified through the His tag; also called LH36 polypeptide 1 + LH36 polypeptide 2 (SP50-L2)
# B3: LH36 diabody-type BsAb (HER2×CD3 diabody-type BsAb derived from CUM-36-2H strain) (bispecific antibody)
# chain 1: B2 chain 1
# chain 2: B2 chain 2 with T2D
# notes: Secreted by Bifidobacterium longum 105-A carrying pLH36-2; purified through the His tag; also called LH36 polypeptide 1 + LH36 polypeptide 2 (SP52-L2)
# B4: LH22 diabody-type BsAb (EGFR×CD3 diabody-type BsAb derived from FOM-22H strain) (bispecific antibody)
# chain 1: ATLTPDIQMTQSPSSLSASVGDRVTITCSASSSVSYMNWYQQTPGKAPKRWIYDTSKLASGVPSRFSGSGSGTDYTFTISSLQPEDIATYYCQQWSSNPFTFGQGTKLQITAAGGGGSQVQLQESGPGLVKPSQTLSLTCTVSGGSISSGDYYWSWIRQPPGKGLEWIGYIYYSGSTDYNPSLKSRVTMSVDTSKNQFSLKVNSVTAADTAVYYCARVSIFGVGTFDYWGQGTLVTVSSAAAEQKLISEEDLNLGGGMRGSHHHHHH
# chain 2: ATLTPDIVMTQSPATLSLSPGERATLSCRASQSVSSYLAWYQQKPGQAPRLLIYDASNRATGIPARFSGSGSGTDFTLTISSLEPEDFAVYYCHQYGSTPLTFGGGTKAEIKAAGGGGSQVQLVQSGGGVVQPGRSLRLSCKASGYTFTRYTMHWVRQAPGKGLEWIGYINPSRGYTNYNQKVKDRFTISRDNSKNTAFLQMDSLRPEDTGVYFCARYYDDHYSLDYWGQGTPVTVSSAAAEQKLISEEDLNLGGGMRGSHHHHHH
# B5: LH9 diabody-type BsAb (EGFR×CD3 diabody-type BsAb derived from FLM-9H strain) (bispecific antibody)
# chain 1: ATLTPDIVLTQSPATLSLSPGERATLSCRASQSVSYMNWYQQKPGKAPKRWIYDTSKVASGVPARFSGSGSGTDYSLTINSLEAEDAATYYCQQWSSNPLTFGGGTKVEIKAAGGGGSQVQLQESGPGLVKPSQTLSLTCTVSGGSISSGDYYWSWIRQPPGKGLEWIGYIYYSGSTDYNPSLKSRVTMSVDTSKNQFSLKVNSVTAADTAVYYCARVSIFGVGTFDYWGQGTLVTVSSAAAAEQKLISEEDLNLGGGMRGSHHHHHH
# chain 2: ATLTPDIVMTQSPATLSLSPGERATLSCRASQSVSSYLAWYQQKPGQAPRLLIYDASNRATGIPARFSGSGSGTDFTLTISSLEPEDFAVYYCHQYGSTPLTFGGGTKAEIKAAGGGGSDVQLVQSGAEVKKPGASVKVSCKASGYTFTRYTMHWVRQAPGQGLEWIGYINPSRGYTNYADSVKGRFTITTDKSTSTAYMELSSLRSEDTATYYCARYYDDHYCLDYWGQGTTVTVSSAAAEQKLISEEDLNLGGGMRGSHHHHHH
# B6: EUM-H diabody-type BsAb (EpCAM×CD3 diabody-type BsAb derived from EUM-H strain) (bispecific antibody)
# chain 1: ATDIQMTQSPSSLSASVGDRVTITCRASQDIRNYLNWYQQKPGKAPKLLIYYTSRLESGVPSRFSGSGSGTDYTLTISSLQPEDFATYYCQQGNTLPWTFGQGTKVEIKAAGGGGSEVQLLEQSGAELVRPGTSVKISCKASGYAFTNYWLGWVKQRPGHGLEWIGDIFPGSGNIHYNEKFKGKATLTADKSSSTAYMQLSSLTFEDSAVYFCARLRNWDEPMDYWGQGTTVTVSSAAAEQKLISEEDLNLGGGMRGSHHHHHH
# chain 2: ADELVMTQSPSSLTVTAGEKVTMSCKSSQSLLNSGNQKNYLTWYQQKPGQPPKLLIYWASTRESGVPDRFTGSGSGTDFTLTISSVQAEDLAVYYCQNDYSYPLTFGAGTKLEIKAAGGGGSEVQLVESGGGLVQPGGSLRLSCAASGYSFTGYTMNWVRQAPGKGLEWVALINPYKGVSTYNQKFKDRFTISVDKSKNTAYLQMNSLRAEDTAVYYCARSGYYGDSDWYFDVWGQGTLVTVSSAAAEQKLISEEDLNLGGGMRGSHHHHHH
# notes: Secreted by Bifidobacterium longum 105-A carrying pEUM-H; purified through the His tag; also called EUM-H polypeptide 1 + EUM-H polypeptide 2
# B7: LH31 diabody-type BsAb (EGFR×CD3 diabody-type BsAb derived from DUM-126H strain) (bispecific antibody)
# chain 1: ATDIQMTQSPSSLSASVGDRVTITCRASQDIRNYLNWYQQKPGKAPKLLIYYTSRLESGVPSRFSGSGSGTDYTLTISSLQPEDFATYYCQQGNTLPWTFGQGTKVEIKAAGGGGSEVQLVESGGGLVQPGGSLRLSCAASGFTLSGDWIHWVRQAPGKGLEWLGEISAAGGYTDYADSVKGRFTISADTSKNTAYLQMNSLRAEDTAVYYCARESRVSFEAAMDYWGQGTLVTVSSAAAAEQKLISEEDLNLGGGMRGSHHHHHH
# chain 2: ATDIQMTQSPSSLSASVGDRVTITCRASQDLATDVAWYQQKPGKAPKLLIYSASFLYSGVPSRFSGSGSGTDFTLTISSLQPEDFATYYCQQSEPEPYTFGQGTKVEIKAAGGGGSEVQLVESGGGLVQPGGSLRLSCAASGYSFTGYTMNWVRQAPGKGLEWVALINPYKGVSTYNQKFKDRFTISVDKSKNTAYLQMNSLRAEDTAVYYCARSGYYGDSDWYFDVWGQGTLVTVSSAAAEQKLISEEDLNLGGGMRGSHHHHHH
# notes: Secreted by Bifidobacterium longum 105-A carrying plasmid p126; purified on protein L resin; also called LH31 polypeptide 1 + LH31 polypeptide 2 with SP50-L2
# B8: LH-PUM-H diabody-type BsAb (PSMA×CD3 diabody-type BsAb derived from LH-PUM-H strain) (bispecific antibody)
# chain 1: ATDIQMTQSPSSLSASVGDRVTITCRASQDIRNYLNWYQQKPGKAPKLLIYYTSRLESGVPSRFSGSGSGTDYTLTISSLQPEDFATYYCQQGNTLPWTFGQGTKVEIKAAGGGGSQVQLVESGGGLVKPGESLRLSCAASGFTFSDYYMYWVRQAPGKGLEWVAIISDGGYYTYYSDIIKGRFTISRDNAKNSLYLQMNSLKAEDTAVYYCARGFPLLRHGAMDYWGQGTLVTVSSAAAEQKLISEEDLNLGGGMRGSHHHHHH
# chain 2: ADDIQMTQSPSSLSASVGDRVTITCKASQNVDTNVAWYQQKPGQAPKSLIYSASYRYSDVPSRFSGSASGTDFTLTISSVQSEDFATYYCQQYDSYPYTFGGGTKLEIKAAGGGGSEVQLVESGGGLVQPGGSLRLSCAASGYSFTGYTMNWVRQAPGKGLEWVALINPYKGVSTYNQKFKDRFTISVDKSKNTAYLQMNSLRAEDTAVYYCARSGYYGDSDWYFDVWGQGTLVTVSSAAAEQKLISEEDLNLGGGMRGSHHHHHH
# How the values were obtained:
# [1] = target: human PSMA on 22Rv1 cells (PSMA-positive human prostate cancer cell line) (human, UniProt Q04609 1-750); assay: cell-based or functional assay
# Sequence of human PSMA on 22Rv1 cells (PSMA-positive human prostate cancer cell line) (Q04609 whole entry): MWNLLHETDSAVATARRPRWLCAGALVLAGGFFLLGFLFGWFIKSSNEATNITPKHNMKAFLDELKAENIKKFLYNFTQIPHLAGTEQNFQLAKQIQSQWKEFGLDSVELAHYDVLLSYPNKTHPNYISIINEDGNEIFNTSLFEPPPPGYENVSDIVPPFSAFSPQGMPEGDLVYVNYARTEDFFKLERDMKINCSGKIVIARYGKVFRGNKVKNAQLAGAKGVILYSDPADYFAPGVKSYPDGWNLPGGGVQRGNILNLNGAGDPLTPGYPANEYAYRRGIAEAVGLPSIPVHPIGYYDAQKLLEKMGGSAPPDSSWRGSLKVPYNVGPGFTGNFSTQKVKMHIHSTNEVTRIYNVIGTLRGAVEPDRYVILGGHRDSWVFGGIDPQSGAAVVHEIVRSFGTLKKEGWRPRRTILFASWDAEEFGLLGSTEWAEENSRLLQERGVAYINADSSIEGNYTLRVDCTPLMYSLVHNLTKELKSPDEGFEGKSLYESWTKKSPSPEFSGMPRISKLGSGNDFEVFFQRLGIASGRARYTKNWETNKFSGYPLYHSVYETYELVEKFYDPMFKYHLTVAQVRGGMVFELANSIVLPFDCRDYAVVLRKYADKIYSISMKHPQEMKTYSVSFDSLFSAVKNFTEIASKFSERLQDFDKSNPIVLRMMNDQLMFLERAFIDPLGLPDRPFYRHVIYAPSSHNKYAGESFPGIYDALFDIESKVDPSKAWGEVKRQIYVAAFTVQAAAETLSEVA
# [2] = target: T2, human CD3E/CD3D heterodimer recombinant protein (manufactured by ACROBiosystems) (human, UniProt P07766 23-126; P04234 22-105); assay: sandwich ELISA: immobilised human CD3E/CD3D heterodimer, BsAb, biotinylated HER2
# T2 construct: Bought reagent, immobilised on ELISA plates
# T2 sequence (P07766 23-126 limits assumed, chain 1 of 2): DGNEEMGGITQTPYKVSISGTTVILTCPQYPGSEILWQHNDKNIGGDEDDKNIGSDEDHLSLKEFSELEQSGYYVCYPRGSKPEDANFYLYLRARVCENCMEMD
# T2 sequence (P04234 22-105 limits assumed, chain 2 of 2): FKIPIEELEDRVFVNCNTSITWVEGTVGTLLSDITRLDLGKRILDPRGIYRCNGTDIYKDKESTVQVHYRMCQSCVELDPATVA
# [3] = target: recombinant biotinylated human EGFR (manufactured by ACROBiosystems) (human, UniProt P00533 25-645, biotinylated (site not stated)); assay: sandwich ELISA: immobilised human CD3E/CD3D heterodimer, BsAb, detection with biotinylated human EGFR
# [4] = target: human EGFR on human cancer cell lines (HCT116, A-431, NCI-H1975, HT-29, RKO) (human, UniProt P00533 25-1210); assay: cell-based or functional assay
# [5] = target: T1, human EpCAM on HCT116 cells …; assay: cell-based or functional assay
# [6] = target: T2, human CD3E/CD3D heterodimer recombinant …; assay: sandwich ELISA: immobilised human CD3E/CD3D heterodimer, BsAb, biotinylated EpCAM
# Experimental: 25 μL of a solution containing 2.5 μg/mL human CD3E/CD3D heterodimer recombinant protein (available from ACROBiosystems) was dispensed into each well of a 96-well plate, followed by standing overnight at 4° C. for immobilization. The solution after immobilization was removed, and each well was washed with 200 μL of PBS-T 3 times. Thereafter, 200 μL of a blocking solution (Blocking One, manufactured by NACALAI TESQUE, INC.) diluted 5-fold with distilled water was dispensed, followed by standing at 25° C. for 2 hours for blocking treatment. The blocking solution in each well was removed, and the well was washed with 200 μL of PBS-T 3 times. 100 (ng/mL) or 1000 (ng/mL) EpCAM×CD3 diabody-type BsAb and 100 (ng/mL) or 1000 (ng/mL) EGFR×CD3 diabody-type BsAb as a negative control were each diluted 50-fold with a signal enhancer HIKARI A solution (manufactured by NACALAI TESQUE, INC.) containing 1% BSA, and 25 μL of each solution was dispensed into each well after blocking, followed by standing at 25° C. for 2 hours for reaction treatment between the antibody (EpCAM×CD3 diabody-type BsAb) and the antigen (immobilized human CD3E/CD3D heterodimer recombinant protein). Thereafter, the solution in each well was removed, and the well was washed with 200 μL of PBS-T 3 times.
# [7] = target: T2, human CD3E/CD3D heterodimer recombinant …; assay: sandwich ELISA: immobilised human CD3E/CD3D heterodimer, BsAb, biotinylated human EGFR
binder,measurement,setting,value
B1,"EC50, cytotoxic activity on 22Rv1 cells with T-LAKs",[1],0.233 nM
B2,binding result,[2],binds
same,binding result,[3],no binding
B3,binding result,[2],binds
B4,"EC50: concentration that reduced the viability of HCT116 cells to 50% (T-LAK:HCT116 5:1, 24 h)",[4],0.00025 nM
B5,"EC50: concentration that reduced the viability of HCT116 cells to 50% (T-LAK:HCT116 5:1, 24 h)",[4],0.0022 nM
B6,"EC50, cytotoxic activity on HCT116 cells with T-LAKs",[5],0.0173 nM
same,binding result,[6],binds
B7,"EC50, viability of HCT116 cells with T-LAKs",[4],0.0084 nM
same,binding result,[7],binds
B8,"EC50, cytotoxic activity on 22Rv1 cells with T-LAKs",[1],0.155 nM
